We go through 104 substances from the supplement of paper PMC12042874.

± gives the uncertainty stated by the source.

The nature of the data set: amyloid nucleation score (Sup35N fusion, yeast selection) (log enrichment); library NNK1; higher = more nucleation; inactive = no reads after selection. In short, it runs like this:
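The nucleation score is the DiMSum log enrichment of output over input reads, centred on the mode score of non-aggregating sequences. Only sequences with 100 or more input reads were scored, using Illumina sequencing of input and output plasmid inserts. Psi-negative yeast expressing Sup35N fused to peptides of 20 random codons were induced 24 hours with 100 μM copper sulfate and grown 7 days at 30°C on medium lacking adenine and uracil.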
The substance FYAVVEQIKFMRSLNLNLLN showed an amyloid nucleation score of -0.08 ± 0.36.
In the case of NICTLYPT it was 0.236 ± 1.1.
RLRSLDHWSWDAVMLMRAQL showed an amyloid nucleation score of 0.432 ± 0.34.
The substance SGCVQDCSLKRIFLMPDKAL gave an amyloid nucleation score of -1.03 ± 0.55.
VFAVERCDFSLRPNVMLVSY came in with an amyloid nucleation score of 1.08 ± 0.92.
The substance YNKGIRRSDQGLKWTFLWPE registered an amyloid nucleation score of -0.712 ± 0.53.
In turn, NGYFYTTYASDVPRRYVPYL gave an amyloid nucleation score of 0.387 ± 0.33.
SVLWRGIFCFWIAWFV yielded an amyloid nucleation score of -1.39 ± 2.4.
In turn, VIASSATGYIHR showed an amyloid nucleation score of 2.46 ± 0.12.
In the case of FVFFSLGHLAFFARDRYSPW it was 2.38 ± 0.094.
In the case of FIMVCGSKGLLVALGALE it was -0.752 ± 1.3; in that of VSLRCWCWGGTHVKPQRGYV, 0.377 ± 0.77.
Regarding HEGGQWLRKLTGPLGLRFMR, the amyloid nucleation score was 0.216 ± 0.48.
The substance TINDKMITRFSLLCPAVSMI displayed an amyloid nucleation score of 1.21 ± 0.84.
As for GWLLYDSPSRFTYC, the figure is -0.531 ± 0.37.
Substance DTRTSNNPALFRGFTALRVR showed an amyloid nucleation score of 0.412 ± 0.54.
Substance FYRASKDCLAKVRRVGC had an amyloid nucleation score of 0.482 ± 0.59.
In the case of YTFNVVCILTTEYWGNGWLY it was 2.91 ± 0.16; in that of CLLLVMTVTGGGSVTMLSQM, -0.078 ± 0.32.
Substance MYYVIFNTNSHAN came in with an amyloid nucleation score of 4.55 ± 0.093.
In turn, QQLYINC registered an amyloid nucleation score of 0.199 ± 0.47.
For the substance SFCVFLMDMSRIGPETLSEW, the amyloid nucleation score is 4.95 ± 0.076.
Take KLIPCLLVITINLGHKATLS: the amyloid nucleation score is 0.482 ± 0.39.
The substance VPDESDHFSFRVEMLSLKVD showed an amyloid nucleation score of -0.639 ± 0.45.
FRDYLAKPCGGWEEYLVDDT registered an amyloid nucleation score of 0.68 ± 0.48.
As for YKEQGTPHLLYADYEARRDG, the figure is 0.791 ± 0.66.
The substance RNSIVGCGYDVGTHVSDLGP yielded an amyloid nucleation score of -0.035 ± 0.41.
As for TGWQCYSRANVVD, the figure is -0.98 ± 0.51; as for EFLNSNLLNTYMKLFLIITH, 3.36 ± 0.21; as for ISNLWYNCCGIRPS, 5.86 ± 0.047.
YWLGLNMCVFSHPGCGLREI showed an amyloid nucleation score of 6.64 ± 0.047.
As to SALIAMYYHSSGTMWIQYFC, the amyloid nucleation score is 0.145 ± 0.83.
QNDVSGKLGNKLSSVCSLRR had an amyloid nucleation score of 0.405 ± 0.95.
As for HGTVNLIYVNEI, the figure is 0.133 ± 0.67; as for NDRCFIGPWRSSRPGDFSGH, -0.043 ± 1.4; as for TRHWVIRQVSSTRDKYTKHA, 0.217 ± 0.66.
In the case of RFVNKGGT, the amyloid nucleation score is -0.325 ± 0.69.
In the case of LEWGQPHPCSGFRKCWYSDV it was 0.136 ± 0.58; in that of VALDSSLHTSVYRIVSLSIG, -0.159 ± 0.52; in that of NVGYTYGYRKNSADNMAFCV, “inactive”.
In the case of KSKRWELLPFEVRAARAVGQ it was -0.024 ± 0.3.
Turning to GPLFYNTM, the amyloid nucleation score was found to be 0.159 ± 1.2.
ERYSMLDGFGSDLNWIIYNN: the amyloid nucleation score is 0.978 ± 0.71.
Substance EWLLARMTISKRMMW gave an amyloid nucleation score of 0.587 ± 0.29.
REDWSTLEPYPHYDTAIGRS gave an amyloid nucleation score of 1.24 ± 0.8.
As for YYLQLIYMHKNRMLISCVCC, the amyloid nucleation score result was “inactive”.
Substance RNYLIDV yielded an amyloid nucleation score of -0.668 ± 0.4.
With GVSMGKESMIV, the amyloid nucleation score was -0.671 ± 0.72.
As to SGYTGDDFQLKVEG, the amyloid nucleation score is -0.307 ± 0.39.
SYAIPMVAIFQVEGHLGHPG had an amyloid nucleation score of -0.211 ± 1.2.
Substance YRCAYFL gave an amyloid nucleation score of -0.25 ± 0.69.
Turning to KYWGS, the amyloid nucleation score result was “inactive”.
In the case of TFSEFAVIDIRYIWGTLFVS it was 0.762 ± 0.38; in that of DAILLHYSNDMLYSYYRRVG, -0.937 ± 0.65.
In the case of LFEGEIIMK it was “inactive”; in that of FSHLFHQY, 2.13 ± 0.57.
With DEDERWCLDIVG, the amyloid nucleation score is -0.076 ± 0.37.
PCDSICALFALSKHQVGGGW: the amyloid nucleation score is 0.324 ± 0.55.
As for ILMFISVFYCFCRKTRYLNR, the amyloid nucleation score is 1.01 ± 0.31.
Consider VCVWCKISPSTYCALIFGDL, for which the amyloid nucleation score was -0.181 ± 0.32.
For the substance GRMGVSSWAGSQRVLIGENL, the amyloid nucleation score stood at 1.47 ± 0.3.
As to YVVFMYFAF, the amyloid nucleation score came to 5.9 ± 0.068.
In the case of FLMGTFDCCTVSVLFFAGK it was 5.44 ± 0.055; in that of SCGLYFAGVEVGGAVSLCKG, 0 ± 0.48.
In the case of LPTHHCGLNVSSDGSNSELR it was 0.068 ± 0.46; in that of MRLSQRWPNSKVCDLRHSRP, 0.632 ± 0.45.
In turn, ITGLVRLFC had an amyloid nucleation score of 0.134 ± 1.
In turn, RYLLKLFRIVGFGVVFMMSK registered an amyloid nucleation score of -0.511 ± 0.34.
In the case of KTWVYSRRRRCVRPGCCGDV, the amyloid nucleation score turned out to be 3.3 ± 0.16.
For the substance HVYMGYICCHAETDACMGCR, the amyloid nucleation score was 4.57 ± 0.14.
As for TYEPKGRLPCWCSAQSMGCL, the amyloid nucleation score was -0.096 ± 0.34.
As for ALYSDRDI, the figure is 0.939 ± 0.29; as for WYRLFALIGLAYLH, 0.586 ± 0.56; as for VFWVNFLFYYGSLLHSKGV, -1.05 ± 1.
For PRRMKT, the amyloid nucleation score came out at 0.15 ± 0.33.
For the substance IRYKA, the amyloid nucleation score came to 4.49 ± 0.11.
In turn, GHDVWKANSLTRVKLREYYG gave an amyloid nucleation score of 0.546 ± 0.35.
In turn, YKDFVGRTEFYRVGMFRLTE registered an amyloid nucleation score of 0.912 ± 0.43.
SSEDAVRLLLIVIFFLTFKF registered an amyloid nucleation score of 0.778 ± 0.49.
Consider YIGFVGSGYLVVCVP, for which the amyloid nucleation score is -2.02 ± 0.99.
FVSSSKLIGCLVRHQKMANR had an amyloid nucleation score of 0.258 ± 0.59.
In the case of EPMMLY it was 0.333 ± 0.28; in that of AKCGICLFYGM, -0.358 ± 0.36; in that of DSGSHRGW, 0.289 ± 0.28.
As for CHLNFMCWPTAQDENMPIFG, the figure is -0.09 ± 0.31; as for DRVCILEQLDRSRGATVCAR, 1.24 ± 0.76; as for SKCVSIMAS, “inactive”.
IMEMG yielded an amyloid nucleation score of 0.11 ± 0.53.
With IDGCLPTNRVGSSRSVRGNV, the amyloid nucleation score result was “inactive”.
For the substance FNMNHGMVSVRVEDRISRAC, the amyloid nucleation score amounted to 0.579 ± 0.28.
NGTTLVAVSYELPLSGVLSK gave an amyloid nucleation score of -0.798 ± 0.57.
For the substance CDCTNT, the amyloid nucleation score was -0.78 ± 1.4.
In the case of NICWFGVSRLQKMEGLWTGA it was 0.515 ± 0.67.
In the case of LVWISVL it was 0.163 ± 0.32.
Turning to PMTVSNEFAPSILLSRALFW, the amyloid nucleation score stood at 3.99 ± 0.14.
The substance DYFRYRIFKKSYHKPAVICI displayed an amyloid nucleation score of -0.415 ± 0.52.
As for HSSNFGRDSNSWLRAVD, the figure is -0.3 ± 0.61; as for MCLSPVNNVLLYFRFNKRAE, 3.38 ± 0.12.
In the case of FQCDVIYA, the amyloid nucleation score was -0.72 ± 0.52.
Substance NSLMFRPWTLGDF had an amyloid nucleation score of -0.434 ± 1.7.
As for VHSCFHFSNKGRLVWFPSFH, the entry is “inactive”; as for GGFFKRL, 0.161 ± 0.36.
For VNVLRTII, the amyloid nucleation score came to 0.255 ± 0.27.
VGLCYRGKWDGFLDKKVRWK registered an amyloid nucleation score of -1.73 ± 2.7.
